In patent CN114935649A (dated 2022) one finds Kd data, which are given here for one molecule.

The test concerns the target T1, HPV6和HPV11的共同抗原表位肽 (SEQ ID NO:1) (HPV6 and HPV11).
T1 construct: also called 序列1的免疫抗原肽; HPV6和HPV11高免疫原性抗原肽
T1 peptide: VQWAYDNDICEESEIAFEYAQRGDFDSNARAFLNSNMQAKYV
Briefly: SPR (ProteOn XPR36), antigen amine-coupled to GLC chip, antibody as analyte at 18.75-600 nM.

B1: 单克隆抗体7C4c (antibody, V domains shown)
VH: EVQLEESATELARPGASVKLSCKASGYIFSGRWQAWIKQRPGQGLEWIGQELMWQAPHILEDSPGGKATLTADKSSSTAYMQLSSLASEDSAVYYCAGSQKWTACWGLGTTLAVSS
VL: DIVITQRPALMAASPGEKVTITCSTGYYPINQWCSWYQQKSGISPKPWIYINHDKTNGVPARFSGSGSGTSYSLTITSMEAEDAATYYCHSVQSSSCPFGAGTKLELK
Broadly, the Kd is the constant that tells how readily two partners part at equilibrium. Lower therefore signals higher affinity. As for B1, the Kd came to 3.24 nM.
